From patent US20170369590A1 (Genmab, published 2017)
Where a chain is given by its changes, count along the chain named.

B1: HuMab 153 (antibody, V domains shown)
VH: QVQLVESGGGVVQPGRSLRLSCAASGFTFSDYVIHWVRQAPGKGLEWVTVISYDGSNKYYADSVKGRFTISRDNSKNTLYLQMNSLSAEDTAMYYCARGGITGTTGVFDYWGQGTLVTVSS
VL: DIQMTQSPSSLSASVGDRVTITCRASQGISSWLAWYQQKPEKAPKSLIYDASSLQSGVPSRFSGSGYGTDFSLTISSLQPEDFAIYYCQQYKSYPITFGQGTRLEIK
B2: HuMab 098 (antibody, V domains shown)
VH: EVQLLESGGGLVQPGGSLRLSCAASGFTFSNYGMSWVRQAPGKGLEWVSAISGSAYSTYYADSVKGRFTISRDNSKNTLWLQMNSLRAEDTAVYYCAKAHYHGSGSYYTLFDYWGQGTLVTVSS
VL: B1 VL with D50A, Y67S, S72T, I85T, K92N, I96Y, R103K
notes: also called TH1014-098; PC1014-098
B3: HuMab 127 (antibody, V domains shown)
VH: EVQLVQSGAEVKKPGESLTISCKGSGYSFSIYWIGWVRQMPGKGLEWMGIIFPGDSDIRYSPSFQGQVTISADKSISTAYLQWSSLKASDTAMYYCARQPGDWSPRHWYFDLWGRGTLVTVSS
VL: VIWMTQSPSLLSASTGDRVTISCRMSQGISSYLAWYQQKPGKAPELLIYAASTLQSGVPSRFSGSGSGTDFTLTISYLQSEDFATYYCQQYYSFPLTFGGGTKVEIK
B4: HuMab 159 (antibody, V domains shown)
VH: EVQLVQSGAEVKKPGESLKISCKGSGYNFTSYWIGWVRQMPGKGLEWMGIIYPGDSDTRYSPSFQGQVTISADKSISTAYLQWSSLKASDTAMYYCARWGTYYDILTGYFNWFDPWGQGTLVTVSS
VL: B1 VL with D50A, Y67S, S72T, I85T, K92Y, S93I, I96W, R103K, L104V
notes: also called TH1014-159; PC1014-159
B5: HuMab 132 (antibody, V domains shown)
VH: QVQLVQSGAEVKKPGASVKVSCKASGYTFTSYGISWVRQAPGQGLEWMGWISAYNGNSNYVQKFQGRVTMTTDTTTSTAYMELRSLTSDDTAVYYCAREYSYDSGTYFYYGMDVWGQGTTVTVSS
VL: EIVLTQSPATLSLSPGERATLSCRASQSVSSYLAWYQQKPGQAPRLLIYDASNRATGIPARFSGSGSGTDFTLTISSLEPEDFAVYYCQQRSNWPMYTFGQGTKLEIK

Biological target: T1, HER2ECDHis (human, UniProt P04626 23-653, biotinylated in the cross-block ELISA (sites not given))
T1 construct: range 1-653; expressed in HEK-293F; also called soluble HER2; biotinylated HER2ECDHis
Assay: ELISA; competitor 050

| Binder | % binding vs no competitor |
| --- | --- |
| B1 | 103% |
| B2 | 100% |

Biological target: T1, HER2ECDHis
Assay: ELISA; competitor tras
Protocol: (§1) Next, the ELISA wells were washed with PBST (PBS supplemented with 0.05% Tween-20 [Sigma-Aldrich, Zwijndrecht, The Netherlands]) and blocked for one hour at room temperature (RT) with PBSTC (PBST supplemented 2% [v/v] chicken serum [Gibco, Paisley, Scotland]). The ELISA wells were then washed with PBST and incubated for one hour at RT with HER2ECDHis serially diluted in PBSTC (0.25-2 μg/mL in 2-fold dilutions). […] The plate was thereafter washed with PBST and incubated for one hour with 0.1 μg/mL Streptavidin-poly-HRP (Sanquin, Amsterdam, The Netherlands) diluted in PBST. After washing, the reaction was visualized through a 15 minutes incubation with 2,2′-azino-bis (3-ethylbenzothiazoline-6-sulfonic acid) (ABTS: one ABTS tablet diluted in 50 mL ABTS buffer (Roche Diagnostics, Almere, The Netherlands)) at RT protected from light. The colorization was stopped by adding an equal volume of oxalic acid (Sigma-Aldrich, Zwijndrecht, The Netherlands). Fluorescence at 405 nm was measured on a microtiter plate reader (Biotek Instruments, Winooski, USA).
(§2) Each HER2 antibody was coated to the ELISA wells at the sub-optimal dose that was determined as described above. After blocking of the ELISA wells, the wells were incubated with the predetermined concentration of 1 μg/mL biotinylated HER2ECDHis in the presence or absence of an excess of a second (competitor) HER2 antibody. The ELISA was then performed as described above. […] Percentage competition was then determined as 100 minus the percentage of inhibition.

| Binder | % binding vs no competitor |
| --- | --- |
| B3 | 102% |
| B4 | 111% |
| B1 | 134% |
| B2 | 107% |
| B5 | 353% |

Biological target: T1, HER2ECDHis
Assay: ELISA; competitor 169
Protocol: as §1, §2

| Binder | % binding vs no competitor |
| --- | --- |
| B1 | 111% |
| B2 | 102% |

Biological target: T1, HER2ECDHis
Assay: ELISA; competitor 084
Protocol: as §1, §2

| Binder | % binding vs no competitor |
| --- | --- |
| B1 | 107% |
| B2 | 103% |

Biological target: T1, HER2ECDHis
Assay: ELISA; competitor F5
Protocol: as §1, §2

| Binder | % binding vs no competitor |
| --- | --- |
| B3 | 88% |
| B4 | 86% |
| B1 | 96% |
| B2 | 96% |
| B5 | 379% |

Biological target: T1, HER2ECDHis
Assay: ELISA; competitor 159
Protocol: as §1, §2

| Binder | % binding vs no competitor |
| --- | --- |
| B3 | 8% |
| B4 | 6% |
| B1 | 23% |
| B2 | 9% |
| B5 | 131% |

Biological target: T1, HER2ECDHis
Assay: ELISA; competitor 091
Protocol: as §1, §2

| Binder | % binding vs no competitor |
| --- | --- |
| B1 | 102% |
| B2 | 104% |

Biological target: T2, human epidermal growth factor receptor 2 (HER2), membrane-bound on cells (human, UniProt P04626 23-1255)
Assay: cell-based or functional assay

| Binder | % cells killed, A431, anti-kappa-ETA'-conjugated | EC50 of cell kill, A431, anti-kappa-ETA'-conjugated |
| --- | --- | --- |
| B1 | 82.4% | ~0.0101 µg/mL |
| B2 | 87.2% | 0.00165 µg/mL |

Biological target: T1, HER2ECDHis
Assay: ELISA; competitor 129
Protocol: as §1, §2

| Binder | % binding vs no competitor |
| --- | --- |
| B1 | 106% |
| B2 | 107% |

Biological target: T1, HER2ECDHis
Assay: ELISA; competitor C1
Protocol: as §1, §2

| Binder | % binding vs no competitor |
| --- | --- |
| B3 | 112% |
| B4 | 96% |
| B1 | 257% |
| B2 | 125% |
| B5 | 422% |

Biological target: T2, human epidermal growth factor receptor …
Assay: cell-based or functional assay
Remark: another data set of the same source

| Binder | EC50, fab-CypHer5E internalization, AU565 | Maximal MFI, fab-CypHer5E internalization, AU565 |
| --- | --- | --- |
| B3 | ~0.00968 µg/mL | 138000 MFI |
| B4 | – | 92400 MFI |
| B1 | ~0.0149 µg/mL | 87500 MFI |
| B2 | 0.0138 µg/mL | 135000 MFI |
| B5 | 0.0114 µg/mL | 112000 MFI |

Biological target: T2, human epidermal growth factor receptor …
Assay: cell-based or functional assay
Remark: another data set of the same source

| Binder | % cells killed, AU565, anti-kappa-ETA'-conjugated | EC50 of cell kill, AU565, anti-kappa-ETA'-conjugated |
| --- | --- | --- |
| B3 | 69% | 0.0345 µg/mL |
| B4 | 70.3% | 0.0349 µg/mL |
| B1 | 60.3% | 0.0323 µg/mL |
| B2 | 58.7% | 0.0121 µg/mL |
| B5 | 61.6% | 0.0394 µg/mL |

Biological target: T1, HER2ECDHis
Assay: ELISA; competitor 098
Protocol: as §1, §2

| Binder | % binding vs no competitor |
| --- | --- |
| B3 | 58% |
| B4 | 11% |
| B1 | 115% |
| B2 | 17% |
| B5 | 309% |

Biological target: T1, HER2ECDHis
Assay: ELISA; competitor 025
Protocol: as §1, §2

| Binder | % binding vs no competitor |
| --- | --- |
| B1 | 97% |
| B2 | 108% |

Biological target: T1, HER2ECDHis
Assay: ELISA; competitor 132
Protocol: as §1, §2

| Binder | % binding vs no competitor |
| --- | --- |
| B3 | 44% |
| B4 | 79% |
| B1 | 33% |
| B2 | 142% |
| B5 | 32% |

Biological target: T1, HER2ECDHis
Assay: ELISA; competitor 153
Protocol: as §1, §2

| Binder | % binding vs no competitor |
| --- | --- |
| B3 | 21% |
| B4 | 40% |
| B1 | 28% |
| B2 | 110% |
| B5 | 41% |

Biological target: T1, HER2ECDHis
Assay: ELISA; competitor pert
Protocol: as §1, §2

| Binder | % binding vs no competitor |
| --- | --- |
| B4 | 112% |
| B1 | 121% |
| B2 | 104% |
| B5 | 288% |

Biological target: T1, HER2ECDHis
Assay: ELISA; competitor 127
Protocol: as §1, §2

| Binder | % binding vs no competitor |
| --- | --- |
| B3 | 11% |
| B4 | 15% |
| B1 | 27% |
| B2 | 21% |
| B5 | 30% |
